This series in a line: yeast display, Sf9 membrane polyspecificity reagent, FACS + sequencing; frameworks hold sequencing errors. The essentials:
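Polyreactivity labels are assigned by the sorting gate from which each nanobody was recovered. The gates were low and high (top ~1%), set on anti-HA fluorescence for expression and streptavidin fluorescence for reagent binding. Before sorting, galactose-induced (36–48 hours) yeast display cells were stained for 1 hour at 4 °C with 10% biotinylated, detergent-solubilized Sf9 membrane reagent.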
Consider “QVQLVESGGGLVQAGGSLRLSCAASGRTFKYYAMGWYRQAPGKERELVAAINSGGITYYADSVKGRFTISRDNAKNTVYLQMNSLKPEDTAVYYCAKVWKIGVLRYPSYGYYYWGQGTQVTVSS”, for which the “polyreactivity (PSR sort gate)” value is on record as “high polyreactivity”.

In the case of “QVQLVESGGGLVQAGGSLRLSCAASGFTFVGNAMGWYRQAPGKERELVAAITSGGSTYYADSVKGRFTISRDNAKNTVYLQMNSLKPEDTAVYYCATGGRGGRRYEYWGQGTQVTVSS”, the “polyreactivity (PSR sort gate)” value is reported as “low polyreactivity”.

Regarding “QVQLVESGGGLVQAGGSLRLSCAASGSPFRPYVMGWSRQAPGKERELVAAISWRGGTTYYADSVKGRFTISRDNAKNTDYLQIHSLKPEDTAVYYCAARGDQGVPVARRYDYWGQGTQVTVSS”, the “polyreactivity (PSR sort gate)” value is recorded as “high polyreactivity”.

Turning to “QVQLVESGGGLVQAGGSLRLSCAASGSTFYVYAMGVYRQAPGKERELVAAIRGGGSTNYADSVKGRFTISRDNAKNTVYLQMNSLKPEDTAVYYCAARYRSLRYRPSGYSYNYWGQGTQVTVSS”, the “polyreactivity (PSR sort gate)” value is reported as “high polyreactivity”.

As to “QVQLVESGGGLVQAGGSLRLSCAASGSIFGGNTMGWYRQAPGKERELVAAISWSGGRTYYADSVKGRFTISRDNAKNTVYLQMNSLKPEDTAVYYCAATFRGVLGWYHYEYWGQGTQVTVSS”, the “polyreactivity (PSR sort gate)” value is given as “high polyreactivity”.

For “QVQLVESGGGLDQAGGSLRLSCAASGFIFDYYAMGWYRQPPWKERELVAAITSGDSTNYADSVKGRFTISRDNAKNTVYLQMNSLKPEDTAVYYCATRFGDRTVSYDSWGQGTQVTVSS”, the “polyreactivity (PSR sort gate)” value was “low polyreactivity”.

With “QVQLVESGGGLVQAGGSLRLTCAASGRIFRKYAMGWYRQAPGKERELVAAISNGGSTNYADSVKGRFTISRDNAKNTVYLQMNSLKPEDTAVYYCAASYRIYRGDSTGFGYWGQGTQVTVSS”, the “polyreactivity (PSR sort gate)” value is reported as “high polyreactivity”.

Take “QVQLVESGGGLVQAGGSLRLSCAASGSTFSQYAMGWYRPAPGKERELVAAINYIGGSTYYADSVKGRFTISRDNAKNTVYLQMNSLKPEDTAVYYCAVQRWKSSVSFGYWGQGTQVTVSS”: the “polyreactivity (PSR sort gate)” value was “low polyreactivity”.

With “QVQLVESGGGLVQAGGSLRLSCAASGLIFPFYTMGWYRQAPGKERELVASISSGASTYYADSVKGRFTISRDNAKNTVYLQMNSLKPEDTAVYYCNADTFAWEGQRKWFAYDYWGQGTQVTVSS”, the “polyreactivity (PSR sort gate)” value was “low polyreactivity”.

For the sequence “QVQLVQSGGGLVQAGGSLSLSCAGSGSTFHNYAMGWYRQAPGQEREMVAGISVRGGGTYYAYSVKGRFTISRDNANNTVYVQMNSLKPEETAVYYCAASRSRYSVNWYNYWGQGTQVTVSS”, the “polyreactivity (PSR sort gate)” value is reported as “high polyreactivity”.

For the sequence “QVQLVESGGGLFQAGGSLRLSCAASGRTFKNNAMGWYRQAPGKERELVAAISSNGGSTYYADSVKGRFTISRDNAKNTVYLQMNSLKPEDTAVYYCAADRTIVEYYYWGQGTQVTVSS”, the “polyreactivity (PSR sort gate)” value is listed as “high polyreactivity”.

Take “QVQLVESGGGLVQAGGSLRLSCAASGSISSAYAMGWYRQAPGKERELVAVITSGGSTNYADSVKGRFTISRDNAKNTVYLQMNSLKPEDTAVYYCNADTVAPLPYDYWGQGTQVTVSS”: the “polyreactivity (PSR sort gate)” value was “low polyreactivity”.

Regarding “QVQLVESGGGLVQAGGSLRLSCAASGRIFYVYTMGWYRQAPGKERELVAAISWSGGSTHYADSVKGRFTISRDNAKNTVYLQMNSLKPEDTAGYYCNKGVVSRVAFEYWGQGTQLTVSS”, the “polyreactivity (PSR sort gate)” value is reported as “low polyreactivity”.

Take “QVQLVESGGGLVQAGGSLRLSSAASGSIFGPYAMGWYRQAPGKERELVAAITWTGGRTYYADSVKGRFTISRDNAKKTVYLQMHSLKPEDTAVDYCAADYSPSTWYLYYTLYYYWGQGTQVTVSS”: the “polyreactivity (PSR sort gate)” value is on record as “low polyreactivity”.

For “QVQLVESGGGLVQAGGSLRLSCAASGRTFPENTMGWYRQAPAKERELVAAISSTTSTNYADSVKGRFTISRDNAKNTVYLQMNSLKPEDTAVYFWADDFWEYDGPWYANDYESWGLGTQVTVSS”, the “polyreactivity (PSR sort gate)” value is reported as “low polyreactivity”.

“QVQLLESGGGLVQAGGSLRLSCAASGNTFSYYTMGWYRPAPGKERELVAAISASGGSTYYADSVKGRFTISRDNAKNTVYIQMNSLKQEDTAVYYCAASFYIERHRYNYWGHGTQVTVSS”: the “polyreactivity (PSR sort gate)” value was “high polyreactivity”.

For the sequence “QVQLVESGGGLVQAGGSLRLSCDASGSSFDYYARGWYRQAPGTERELVAAITSTGRTYYADSVKGRFTISRDNAKNTVYLQMNSLKPDDTAVYYCAADQPWGPLFDYWGQGTQVTVSS”, the “polyreactivity (PSR sort gate)” value was “low polyreactivity”.

As for “QVQLVESGGGLVQEGGSLRLSCAASGLIFNRYAMGWYRQAPGKERELVAAITSRGGRTYYADSVKGRFTISRDNAKNTVYLQMNSLKPEDTAVYYCNRTPTGSYLYGMDYWGQGTQVTVSS”, the “polyreactivity (PSR sort gate)” value is “high polyreactivity”.

On to “QVQLVESGGGLVQAGGSLRLSCAASGSIFKYYAMGWYRQAPGKERELVAAITSGVSTYADSVKGPFTISRDNAKNTVYLQMNSLKPEDTAVYYCAVRVTGPRGDYWGQGTQVTVSS”, for which the “polyreactivity (PSR sort gate)” value is “low polyreactivity”.

For “QVQLVESGGGVVQAGGSLRLSCAAYGFIYKQNAMGWYRQAPGKERELVATITRGGDTKYADSVKGRFTISRDNAKNTVYLLMNSLKPEDTAVEYCAARYTPSSSIYRFYNFYGYDYWGQGTQVIVSS”, the “polyreactivity (PSR sort gate)” value is recorded as “high polyreactivity”.

Consider “QVQLVESGGGLVQAGGSLRLSCAASGSTFWPYAMGWYRQAPGKEREMVAAITWRGGRTYYADTVKGRFTISRDNAQNTVYLQMNSLKPEDTAVSYCNTGPWSRSWSQKYEYWGQGTQVTVSS”, for which the “polyreactivity (PSR sort gate)” value is “high polyreactivity”.

“QVQLVESGGGLVQAGGSLRLSCAASGFIFRLYAMGWYRQAPGKERELVAAISGRGGNTYYADSVKGRFTISRDNAKNTVYLQMNSLKPEDTAVYYCAADRPGTGYSDYDYWGQGTQVTVSS”: the “polyreactivity (PSR sort gate)” value was “high polyreactivity”.

Turning to “QVQLVESGGGLVQAGGSLRLSCAASGGTFTYYAMGWYRQAPGKVRELVAAISWSGGSTYYADSVKGRFTISRDIAKNSVYLQMNSLKPEDSAVYYCAADYTGHFYYYWGQGTQVTVSS”, the “polyreactivity (PSR sort gate)” value was “low polyreactivity”.

Turning to “QVQLVESGGGLVQAGGSLRLSCAACGSTFPGNAKGWYRQAPGKERELVAAISSSGGITYYADSVKGRFTISRDNAKNTVYLQMNSLIPEDTAVYYCSWGHGTQVTVSS”, the “polyreactivity (PSR sort gate)” value is “low polyreactivity”.

With “QVQLVESGGGLVQAGGSLRLSCAASGRIFSSYVMGWYRQAPGKERELVAAIRWSGGSTYYADSVKGRFTISRDNAKNTVYLQMNSLKPEDTAVYYCAAVVYRYYATGYGYWGQGTQVTVSS”, the “polyreactivity (PSR sort gate)” value is on record as “high polyreactivity”.

Turning to “QVQLVESGGGLVQAGGSLRLSCAASGSISADDVMGWYRQAPGKERELVAAISVSAGTTYYADSVKGRFTISRDNAKNSVYLQMNSLKPEDSAVYYCAATDSYYWLYYYGYSPGNDYWGQGTQVNVSS”, the “polyreactivity (PSR sort gate)” value is “low polyreactivity”.

For “QVQLVESGGGLVQAGGSLRLSCDASGFIIARNAMGWYRQAPGKERELVAAISASGGRTYYADSVKGRFTISRDNAKNTVYLQMNSLKPEDTAVYYCAARRDGRSGSYNYWGQGTQVTVSS”, the “polyreactivity (PSR sort gate)” value is “high polyreactivity”.

Take “QVQLVESGGGLVQAGGSLRLSCAASGFIFRGNAMGWYRQATGKERELVAGIRSLGGTTSYADSVKVRFTISRDNAKNTVYLQMNSLKPDDSGVYYCAAGYGADFDYWGQGTQVTVSS”: the “polyreactivity (PSR sort gate)” value is on record as “low polyreactivity”.

On to “QVQLVESGGGLVQAGGSLRLSCAASGITFSGNAMGWYRQAPGKEREFVAAITFSGGRTYYADSVKGRFTISRDNAKNTVYLQMNSLKPEDTAVYFCAAETPRGRWLGDYWGQGTQVTVSA”, for which the “polyreactivity (PSR sort gate)” value is on record as “low polyreactivity”.

With “QVQLVESGGGLVHAGGSLRLSCAASGFTFRGYAMGWYRPSPGKEREFVAAISRSGGSTNYADSVKGRFTISRDNAKNTVYLQMNSLKPEDTAVYYCAAGWNPYDYWGQGTQVTVSS”, the “polyreactivity (PSR sort gate)” value was “high polyreactivity”.

For “QLQLVESGGGLVQAGGSLRLSCAASGYMGWYRQAPGKERELVATISGSGGSTYYADSVKGRFTISRDNAKNTVYLQMNSLKPEDTAVYYCTTEIWGVNRSGYDYWGQGTQVTVSS”, the “polyreactivity (PSR sort gate)” value is given as “low polyreactivity”.

Regarding “QVQLVESGGGLVHAGGSLRLSCAASGSIFGWYVMGWYRQAPGKERELVAAISSVGSTYYADSVKGRFTISRDNAKNTVCLQMNSLKPEDTAVYYCAKLRYPYLFWDDSEYWGQGTQVTVSS”, the “polyreactivity (PSR sort gate)” value is reported as “low polyreactivity”.

In the case of “QVQLVESGGGLVQAGGSLRLSCAASGFTFVYYGMGWYRQAPGKERELVADISSGGNTYYADSVKGRFTISRDNAKNTVYLQMNSLKPEETAVYYCNKDARDEEGSSRTYDYWGQGTQVTVSS”, the “polyreactivity (PSR sort gate)” value is on record as “low polyreactivity”.

On to “QVQLVESGGGLVQAGGSLRLSCAASGRIFPTYTMGWYRQAPGKERELVAAISGRGGNTYYADSVKGRFTISRDNAKNTVYLQMNSLKPEDTAVYYCAARYPVRNGYWGQGTQVTVSS”, for which the “polyreactivity (PSR sort gate)” value was “high polyreactivity”.

Turning to “QVQLVESGGGLVQAGGSLRLICAASGSIFDRYVMGWYRQAPGKERELVAAITTSGDGTYYADSVKGRFTISRDNAKNTVYLQMNSLKPEDTAVYYCAAVRRSWKYSTSDYWGQGTQVTVSS”, the “polyreactivity (PSR sort gate)” value was “low polyreactivity”.

Consider “QVQLVESGGGLVQAGGSLRLSCAASGTFFGYAMGWYRQAPGKERELVAAITSGGSTYYADSVKGRFTISRDNAKNTVYLQMNSLKPEVTAVYYCARVYSRWSYRYDYWGQGTQVTVSS”, for which the “polyreactivity (PSR sort gate)” value is given as “low polyreactivity”.

For the sequence “QVQLVESGGGLVQAGGSLRLSCAASGSIFQKYAMGWYRPAPGKERELVAAITSSGSTNYADSVKGRFTISRDNAKNTVYLQMNSLKPEDTAVYYCAADRYAGYYSWYYPLWSSKDDYWGQGTQVTVSS”, the “polyreactivity (PSR sort gate)” value is “low polyreactivity”.

Turning to “QVQLVESGGGLVQAGGSLRLSCAPSGITFLHYAMGWYRQAPGKERELVAAITRGGITYYADSVKGRFTISRDNAKNSVYLLMNSLKPEDTAVYYCNALGFGSNYDYWGQGTQVTVSS”, the “polyreactivity (PSR sort gate)” value is “high polyreactivity”.

“QVQLVESGGGLVQAGRSLRLSCAASGFIFWSNTKGWYRQAPGKERELVAAISYSGARTYYADSVKGRFTISRDNAKNTVYLLMNSLKPEDTAVYDCAAYLWGTHDRMDYWGQGTQVTVSS”: the “polyreactivity (PSR sort gate)” value is recorded as “high polyreactivity”.

On to “QVQLVESGGGLDQAGGSLRLSCAASGIIFRWYAMGWYRQAPGKERELVAAITASGGSTYYADSVKGRFTISRDNAKNTVYLQMNSLKPEDTAVYYCNKLRLANIQTDGYYYWGQGTQVTVSS”, for which the “polyreactivity (PSR sort gate)” value is recorded as “high polyreactivity”.

For the sequence “QVQLVESGGGLVQAGGSLRLSCAASGYTFLAYAMGWYRQAPGKERELVAAISRSGVSTYYADSVKGRFTISRDNAKNTVYLQMNILKPEDTAFYYCAKGVRYQQYHIMYYWGQGTQVTVSS”, the “polyreactivity (PSR sort gate)” value was “high polyreactivity”.
